In publication PMC12501149:

Molecular target: biotinylated RBD of TcsL (Paeniclostridium sordellii) (UniProt Q46342)
Test: SPR

Sequence of biotinylated RBD of TcsL (Paeniclostridium sordellii) (Q46342 whole entry): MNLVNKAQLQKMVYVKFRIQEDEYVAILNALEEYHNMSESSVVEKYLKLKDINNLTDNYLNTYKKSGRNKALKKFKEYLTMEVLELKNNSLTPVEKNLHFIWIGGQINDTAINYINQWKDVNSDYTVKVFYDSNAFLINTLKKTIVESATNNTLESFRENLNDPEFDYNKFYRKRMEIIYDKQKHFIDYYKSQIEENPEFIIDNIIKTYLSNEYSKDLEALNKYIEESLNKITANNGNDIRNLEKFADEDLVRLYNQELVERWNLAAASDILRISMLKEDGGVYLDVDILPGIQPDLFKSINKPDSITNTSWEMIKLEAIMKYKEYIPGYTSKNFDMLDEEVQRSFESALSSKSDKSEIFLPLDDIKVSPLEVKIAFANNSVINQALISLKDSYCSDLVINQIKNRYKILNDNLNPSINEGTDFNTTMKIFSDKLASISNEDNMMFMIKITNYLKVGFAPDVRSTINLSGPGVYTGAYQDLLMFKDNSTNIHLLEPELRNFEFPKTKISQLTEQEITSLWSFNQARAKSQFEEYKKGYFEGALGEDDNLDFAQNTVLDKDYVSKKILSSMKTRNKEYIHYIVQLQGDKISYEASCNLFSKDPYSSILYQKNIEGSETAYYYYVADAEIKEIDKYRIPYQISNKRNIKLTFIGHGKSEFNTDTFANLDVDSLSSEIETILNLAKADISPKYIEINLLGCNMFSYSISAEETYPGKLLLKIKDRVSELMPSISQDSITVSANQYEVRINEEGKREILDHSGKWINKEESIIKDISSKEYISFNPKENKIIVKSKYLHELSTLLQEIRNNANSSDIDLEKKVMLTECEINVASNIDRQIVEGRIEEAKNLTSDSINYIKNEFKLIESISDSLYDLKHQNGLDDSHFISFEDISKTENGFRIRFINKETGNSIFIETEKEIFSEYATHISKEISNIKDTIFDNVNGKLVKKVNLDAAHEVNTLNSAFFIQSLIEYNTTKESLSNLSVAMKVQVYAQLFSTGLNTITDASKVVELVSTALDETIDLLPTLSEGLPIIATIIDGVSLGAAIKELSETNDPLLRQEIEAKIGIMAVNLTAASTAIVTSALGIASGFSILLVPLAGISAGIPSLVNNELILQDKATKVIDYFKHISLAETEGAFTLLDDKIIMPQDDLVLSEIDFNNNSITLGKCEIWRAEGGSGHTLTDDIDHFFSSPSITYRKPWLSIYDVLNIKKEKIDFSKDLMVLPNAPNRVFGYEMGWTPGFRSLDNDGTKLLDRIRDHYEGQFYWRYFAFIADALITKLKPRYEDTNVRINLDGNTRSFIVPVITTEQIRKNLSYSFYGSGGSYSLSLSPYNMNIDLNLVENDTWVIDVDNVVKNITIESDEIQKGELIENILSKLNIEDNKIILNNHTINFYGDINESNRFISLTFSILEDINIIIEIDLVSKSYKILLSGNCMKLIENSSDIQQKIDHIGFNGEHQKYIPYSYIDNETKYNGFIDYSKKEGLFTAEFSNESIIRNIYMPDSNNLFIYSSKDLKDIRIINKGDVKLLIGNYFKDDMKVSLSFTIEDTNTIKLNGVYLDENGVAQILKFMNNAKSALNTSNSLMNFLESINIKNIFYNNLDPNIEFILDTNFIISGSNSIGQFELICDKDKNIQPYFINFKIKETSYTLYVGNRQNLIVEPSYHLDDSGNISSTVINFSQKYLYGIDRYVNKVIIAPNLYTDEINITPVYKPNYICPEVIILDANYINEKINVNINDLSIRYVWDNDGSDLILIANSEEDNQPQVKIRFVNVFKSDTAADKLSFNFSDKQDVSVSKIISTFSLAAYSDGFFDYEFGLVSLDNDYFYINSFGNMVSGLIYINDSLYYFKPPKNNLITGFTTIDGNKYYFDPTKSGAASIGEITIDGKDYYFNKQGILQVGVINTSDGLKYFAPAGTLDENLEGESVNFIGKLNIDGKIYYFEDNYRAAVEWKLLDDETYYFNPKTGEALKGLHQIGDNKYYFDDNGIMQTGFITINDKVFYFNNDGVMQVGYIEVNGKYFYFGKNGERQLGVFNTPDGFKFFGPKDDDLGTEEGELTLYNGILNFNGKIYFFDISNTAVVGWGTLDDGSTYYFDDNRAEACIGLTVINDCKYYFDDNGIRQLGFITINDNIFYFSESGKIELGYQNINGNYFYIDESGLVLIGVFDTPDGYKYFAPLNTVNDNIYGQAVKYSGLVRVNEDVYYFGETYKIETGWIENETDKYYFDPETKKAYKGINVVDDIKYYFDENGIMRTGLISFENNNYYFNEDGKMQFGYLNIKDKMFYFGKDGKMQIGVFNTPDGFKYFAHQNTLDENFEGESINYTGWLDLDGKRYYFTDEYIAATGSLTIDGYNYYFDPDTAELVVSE

B1: B10 (designed binder)
chain: NEEIIKEIKQLLKEGKKASEIIELLKKNGYEEIAKDAELAALKSKDMRKAAAETAIKKLE
Question: How did the Kd turn out when B1 was run?
Answer: Its Kd is 0.0183 nM.

Question: What about the koff of the same binder?
Answer: The koff was 0.000125 s⁻¹.

Question: And the kon?
Answer: Its kon is 6.86e+06 M⁻¹ s⁻¹.
